# Experiment: label from the status in PepcDB records
row,Sequence,protein production
1,MDGKRVWLSDDELTRFIEQAETPHQRLAFLLAGRVGLRRSEIIEVCPQDLVDGPTGDHIRVWESYAKRDKYREPPVPQEVVTIAETLAYQQDDDEPLLDVAGSTVYRWVRRAADELEEETGDRGWQYLDVHDLRRTWGTYLLEQGVIPSVVMSFGGWEDWDTFRKHYLGEFSLEHHHHHH,not failed
2,MSHYQCAVCSSIDANPNSLAVNYQCLADSSVVGEFHVLPRHQGYTDLLHGGIASSLLDGAMTHCLLFRDIQALTAQLDVRYHAPIELDEHVTITAHCEGERRGIYQLVAQLLVNNEVRVTAKGKFIRPKLEHHHHHH,not failed
3,MCIGMDIRDFFAQSAGRWFSQRTSHHLAFKQTESGKSQLTIELLSVDDPAVIALCQQYDMDPAWAVCGARVSWDGTMEWDNEKHEGSTVLVPIMDQGSRMEGKLLREMGYAEKAPVAGRFSMGSDGALTLITEYETIYSEERLWFASPNLRLRTSILKRFGGFSMASFCSEIRLGVTQPANSLEHHHHHH,not failed
4,MKWYTKYLQVYEKPFSEAPQEIVEEVRNKLKLLQSDNPLVTVSLIGYNEEKHLLASLWSLSEMKCKYPIEIIGTDNDSKDQTATIYEATGIPYVIEHQHSCGHARLCGLKRAKGKYHINIDSDTMYPPHYVETMVDALERPGIVAVSSLWSYIPDKEHSWVGLKIYEFIRDIHLWIQSIKRPELSVRGLVFAYRTDYARQVGIRTDIRRGEDGSLALRLKEYGNIYFIRKRKARAITGYGTISADGSLFNSFKVRAIYALKNIGRVFTRKKEYKDEDDNLIKSLEHHHHHH,not failed
5,MAIAHTYRRYLDYLRQDRGLAKNSLLVYGPFIRDFLDSHSAGDGSLLPDAFDAVTIRNHLLARSKGRSAEYTRLMAVALRSFCHFLFLRGDTARDLAGSVLEHHHHHH,failed
6,MYFLKKIVNLFSSKIESEDNNVKKDDLTQPRKQSPEARKRRNRRIIFWLIILLIIGTIIGVIIYFSVRKEYDNVIVKSAQTEVVNNKKVLYLNTIRPNSTQITRYTIDEDQLLTARVNILNNTNFQIISNASSLGLSRISFNIVREGVEKFKLGETNIYAPISGNTNNQWNWLTSIITQNAGIPSSGFNPQVIISPLISIIFFIIFLYIILRVSKAQSDSLLGTNKANAKLTKSGVRFSDVAGIAEVKEELIEIVDFLKEPKKYVAAGARIPKGVMLYGPPGTGKTLIAKAVAGEANVPFFQTTGSSFEDTFVGVGARRVRELFEKARKSAPAIIFIDEIDSVAKKRGNSLTAVQDQTINQLLSELDGFDTSSGVIVMAATNRLDTLDDAILRPGRFDRQISVNLPDILEREQILRIHSRNKNLSAKVSLEDIARRTAGFSGAQLENVLNEAALLSVRDKATSIHMNHLDEAIDRVIAGPSRPNKVISEREREQVSYHEAGHALIGLYSPGADVVQKITIVARGRAAGYTLQTPERNENILQNKTELISRVRTALGGRAAEELIYGPNEITTGAANDFYKITNIVRAMVASFGMTDVGLTQYIATEGVDNPYRNSYSEQTALAIDIEIEKIIQREYKIVKEMINEHREELELIVQTLLELETILKPQIDYIHQYKQLPPEVIANKNKREASQKQANSSVEEAKVVDDEESIKDKEKDQKSN,failed
7,MTLKLIGAGFGRTGTWSTFAALNRLGLPCYHMQEVIMNKANKGHLDFWRKVANSPPGSQHDWNRVFANYTATVDNPGCCVWKELLAAYPDAKVLLTLHPRGAEAWYESTIDTIYFTENVWQFKILEWLTPFGWKFGDMSRKLIWGRTLDGVMNDRAKAVARYNTYVEQVKAAVPPHKLLVYKVTEGWAPLCDFLGVALPNEPFPNLNDRETIKKIIRDIIKGSYIMLGLAIAAIVAVVAALWWWLG,failed
8,MNAPSLKEENALTITRVFDAPANLVFKVWTTPEHLARWWGPKGFTVPAITTDFREGGAWRGCIRSPEGQDYWAHGIYREIVAPSRIVLSFVWEEEGAIDTLITVTLEDVAGGTRLTFHQAPFTSAESRDSHAEGWSECMDRLVSYVAARKEEVQ,failed
9,MGNYMTYIVGLTGGIGSGKTTIANLFTDLGVPLVDADVVAREVVAKDSPLLSKIVEHFGAQILTEQGELNRAALRERVFNHDEDKLWLNNLLHPAIRERMKQKLAEQTAPYTLFVVPLLIENKLTALCDRILVVDVSPQTQLARSAQRDNNNFEQIQRIMNSQVSQQERLKWADDVINNDAELAQNLPHLQQKVLELHQFYLQQAENKNA,not failed
10,MSLTIGVIGKSVHPYWSQVEQGVKAAGKALGVDTKFFVPQKEDINAQLQMLESFIAEGVNGIAIAPSDPTAVIPTIKKALEMGIPVVTLDTDSPDSGRYVYIGTDNYQAGYTAGLIMKELLGGKGKVVIGTGSLTAMNSLQRIQGFKDAIKDSEIEIVDILNDEEDGARAVSLAEAALNAHPDLDAFFGVYAYNGPAQALVVKNAGKVGKVKIVCFDTTPDILQYVKEGVIQATMGQRPYMMGYLSVTVLYLMNKIGVQNTLMMLPKVKVDGKVDYVIDTGVDVVTPENLDEYLKKMEELGIPIKEGHHHHHH,not failed
11,MSDVRTNEAEKRHAHPDFDAARFPADARVRVLARRFPPYHRDSPCLAILDRFLHDPTLSAAAVVDDAMRPVGLIDRYSLVEQFLHPYSRDLYHKHSIAAFMDPEPVIVEADSSIDDLSRIIIDAGMRHMVSGFIVTEDGLYLGIGSGHDLFEEVANRKQNHLYHLAHYDPLTSLPNRLLLNDRLKRACLRGQRGGYRIALLFIDLDRFKLVNDTLGHAAGDQLLQGVAGRFAACVRKVDTVARLGGDEFTVLLEPVQGPDEALAVAAKLAQSLERPFLIQNHEITTSASIGVVLFPEHDATVEGLMRKADAAMYCAKREGRNRFALFTEEMNSTVVERVTLESYLNAALEKGEFCCHFQPQMATADDRIVGVEALLRWTNPVLGRVPPLKFIPVAEDTGLILPLGLWALETACAQQVRWLSQGLPPLRMAVNISPLQFRNREFCDQVRAIVQRTGIRAEHLELELTESAVMADAESSVGILRELRDSGIRLAIDDFGTGYSSLSYLRKFPLDRLKIDRSFVSGIDRIPANELIVKAIVALGGSLGLDVIAEGVETPEELECIERCGCSEYQGFRLSEPLTAEDFAHWFEDSGYV,failed
12,MANVAIIGTEKSGRTSLAANLGKKGTSSDITMYNNDKEGRNMVFVDAHSYPKTLKSLITALNISDIAVLCIPPQGLDAHTGECIIALDLLGFKHGIIALTRSDSTHMHAIDELKAKLKVITSGTVLQDWECISLNTNKSAKNPFEGVDELKARINEVAEKIEAENAELNSLPARIFIDHAFNVTGKGCVVLGVVKQGISKDKDKTKIFPLDRDIEIRSIQSHDVDIDSAPAGTRVGMRLKNVQAKDIERGFIISDKEIVTTDYTLECTVSKFTKKIEPASVLHLFVGLQSEPVRVEKILVDGNEVEEAKPGSTCVLELSGNKKLAYSKQDRFLLANLDLTQRFAAYGFSK,not failed
13,MPPGTTLQGGKYRLEQVLGQGGFGITYLGSQTQLGARVAIKELFPSGSTRQSGQYVLPPAGTDPAGWAQAKQDFTAEGRTVARFNHPDIVRVMDLFEENGTAYLVMEFLEGQTLGSAIEKRGPLPPDEVVNIAKRVLGALSVVHSAGMLHRDIKPDNIYLDKAGRTVLIDFGSARTFAAGQTVSHTRLVTPGYAPLEQYSGSAKFGPYTDIYALGATLYHALTGHPPTPATDRTMGTPLAPLPPNTPPALREAIERSLAIKINERPQSTQEVLALLNQVSVAPQSAPAAPAPRPTPPQRNQTFPPAPQPTPQRQPQRPPQPVPQPPAQRRRGPGCGCLFPLLLLGGLALYGMNVLGPLLSPSQTETTTTSEQTQPEPPAQTPTTPTEDPTIPQAPGTTDSGQDWQSGDSIDLGLPGSNGETPAQTDNTATPETTTQGNAGTETNPTTTPETNTSTAPTSGELVVTAPNVTLRSAADAAANSLGTLAAGSTVQILQTQDGWYEVQTTSGQRGWVGTDAALPPVSAEALKALQTAAGQGGDVQLSPGVYRLQEPLVLSQDAHLTGAGRDRTWITSAAGNAVLTTRGNVSLQGVTVGWTGQTPGGALLAEGGTVTLRDARLTGGVRDETRNESGSGLQLSQGAQGDVQGSDLVGNAYGASVSDTAQLKLKDSTLSDNSLGGAIFLDSSGGEVRGSTLERNGGDGLTVRHTAAPVIVDSELRDNGERGLSVEGQAKPTVKRVTASGNTLQGIGVQDDAQPQLSNNKLTGNGQEGLTYADRAGGRASENELSGNQVGIAVQGSAAPELRTNIIRDSRDAGLSYAGQAGGTARGNTITGSAKPGISLWGEAQPTLSSNVIQGGAQSGIVFAEHAGGTLDSNEVLGNALSGLVVRDTAAPEVRGNTFQDNGKAAMVYEGEAGGRVSGNTCQGNGSDVIELHLTSVLAGPDLSGASCAVQTQGNW,failed
14,MSLSLIKVGLVGIGAQMQENLLPSLLQMQDIRIVAACDSDLERARRVHRFISDIPVLDNVPAMLNQVPLDAVVMAGPPQLHFEMGLLAMSKGVNVFVEKPPCATLEELETLIDAARRSDVVSGVGMNFKFARPVRQLREMTQVDEFGETLHIQLNHYANKPRAPLWGLDSTLRSFLLAQAIHTIDLAITFGDGELRRVQSSVQRHDDALIVRADMAFSSGATASLLAGTSFPYFEFDMKLVSSSSTLVELDNLWNITLHEPEHATRPTGAAKRWRGAWQPGPLDSGYERSGYHGELHQFFQAIREHRRFEADFASLLPTYRVIEEICSADAVAQGLQNAHSRIRTGIESLSEGHHHHHH,not failed
15,MLRRSFSSYLRQGLLLAFLAAFSALWLAQAHAERRAAIVVGNSEYPFAPLTNPRNDAKLIANTLTELKFDVLLFYDVKKSAEKDLNDAIRAHLIGADMAVFYYAGHALQYNGQNLLLPVDTRISSAKEVAADAMRLNDLIDIVKNDPVGVKVFILDACRNNPVAKEKGLQQGLAYTEAGSGQVLVAFATSAGEVAYDGTGINSPYSSALANALLMPNLDVYDTFRTVRGDVRQATGGSQIPWITGSIETKFVFRQGDAGKQVAQAEHAAEADGGLTIDEVLWSFISDSQNPEDFERFVKVFPNSRYAAEATEKSRFKVAALTKRGLYVNGNLVSSSIAATAPIGASDKALSEEFVFQQAGERAVSETFRIWPSNLPDTQRGMRTMVTDCDLYAADPNDPQRAVPGVTNGLVNVRDALRACAFALAADINNPRLQFQFGRVLEIARRYSWAEHFYELAGNQQYSAALINMGYMARVGMGREIDYGRAFDPYVRAAALGNLRARTDIGSAYIAGQGVPKLPEEGVLWYRLAASSGWANAITALGDAYRLGTGVKQDYVQAASLYSAAADTGQIDAMANLGQAYLAGEGVKKDVPRGLELLQRANDMGNRYAPYFMAQLYLKGDRKLPADPRRALALLELSANRGNEYAYVRLAWGHRDGVFTGGKPDLRRAYFDASLAARLRADQGEQAKAEIAKKIDPATRKEIDGEVELYIKQNGP,failed
16,MSVQLVKGVNLHVIPTEKYKTVRLLVRFNTRLNHETITKRTLLSSLMETNSLNYPNQVKLSERLAELYGASFGIGVSKKGNQHWFNISMNIVNDHYLQDSQVLAEAVDFLKEIIFAPNIQAGQFEAETFQREKENLKAYLESIVEDKQTYASLALQSVYFNQSEDQKIPSFGTVAALAEETAASLAAYYQKMLAEDQVDIFVLGDVNEAELVPLFKQLPFTPREEGKAAIFYNQPIRNVIEERTEREVLAQSKLNLAYNTDIYYGDSYYFALQVFNGIFGGFPHSKLFMNVREKEHLAYYASSSIDTFRGFMTVQTGIDGKNRNQVLRLISTELENIRLGKIRELEIEQTKAMLKNQYILALDNAGAWLEKEYLNELMPQTMLTAEEWIARINAVTIPEIQEVAKRLELQAIFFLEGETEND,not failed
17,MLNLSQNGCSVWVASSTEMVLTPTAVALGKFDGVHLGHQRVIQPVLQSTRSAQTWGDALDSSAQSANPPAAPQERIYSTVVTFRPHPQEFFTGQARTWLTPLDEKVQQLRSLGVDQLVLLPFDKELTALSPEEFVEKILVQQLRCQRISVGQDFCFGKQRRGTAKDLQLIAAKYHIPVSIVPLQTSDGQFLEDGNCGSFESLEDAPISTSLIRQALETGDIKTANRFLGRPYILIGVVVEGEQLGRTIGFPTANLELPKDKFVPRQGVYAVRVKILGESADANIPLEILGVMNIGNRPTVNGTYSSVEVYLLDWSGDLYGKELAVQLVDFLRPEQKFPSLEALKAQIQQDCTVARQILSREN,failed
